Results from the Human Domainome abundance scans (Beltran et al. 2025).

B1: RanBP-type and C3HC4-type zinc finger-containing protein 1, residues 369 to 411; numbered along this chain, Q9BYM8 (parent)
chain: YHCKTPDCKGWCFFEDDVNEFTCPVCFHVNCLLCKAIHEQMNC

Variants of: B1
Assay: abundance fitness (aPCA) (normalised: wild type 0, dead -1); higher = more abundant; growth selection in yeast, the domain comes from the species named
Conditions: Homo sapiens

Abundance fitness, by site and new letter:
F21: S 0.07, W 0.083, N -0.321, Q -0.205, Y -0.06, V 0.06, G -0.291, L -0.45, M -0.188, T 0.03, R -0.359, D -0.211, H -0.665, P -0.688, K -0.285, C -0.186, E -0.501, I -0.039, A 0.083
F14: S -0.165, E -0.082, Q -0.295, W 0.075, L 0.243, G 0.162
W11: V 0.116, D -0.162, Y -0.038, C -0.088, A -0.006, T 0.176, N 0.063, S 0.132, G -0.172, E 0.184, P -0.529, M 0.191, L 0.044, R 0.036, K 0.023
V18: T -0.01, N -0.267, I 0.099, E 0.001, G -0.276, Q 0.06, M -0.14, S -0.055, P 0.048, H -0.277, W -0.458, F -0.272, R 0.069, K -0.001, D -0.222
F13: K -0.084, C -0.111, G -0.279, T -0.084, E 0.428, R 0.092, V -0.235, A 0.124, S 0.066
F27: S -0.11, H 0.155, M -0.159, P -0.62, L -0.02, D -0.004, I -0.571, T -0.068, R 0.005, W -0.147, V -0.536, G 0.115, E -0.184, Q 0.059, K 0.108
V29: Q -0.311, G -0.562, D -0.414, A -0.368, L -0.215, F -0.54, T -0.108, R -0.105, C -0.265, W -0.319, E -0.34, K -0.109, S -0.257, P -0.624, I -0.453
C26: K -0.834, Y -0.77, S -0.804, G -0.757, A -0.713, H -0.537, P -1, N -0.708, D -0.567, W -1.07, T -0.921, R -0.754, M -1.05, L -0.792, I -0.783, V -1.03
L32: G -0.369, F -0.407, D -0.531, C -0.27, A -0.231, K 0.037, E -0.366
C12: Y 0.04, R -0.193, S 0.252, G -0.274, E -0.854, L -0.348, V 0.071
V25: C -0.181, S -0.225, G -0.49, W -0.406, Y -0.221, K -0.112, M -0.298, L -0.113, H -0.093, I -0.057, Q -0.17, T -0.36, D -0.142, A -0.136, E -0.138, P -0.76, R -0.242
P24: D -0.36, N -0.233, E -0.277, Q -0.099, H -0.676, R -0.39, V -0.774, I -1.09, G -0.389, A -0.558, T -0.324, K -0.287, L -0.681, C -0.658
D16: A 0.006, G -0.075, W -0.349, V -0.075, R 0.044, S -0.14, M -0.244, I -0.458, E 0.026, N -0.171, K 0.146, H -0.045
